Patent US20160264650A1 (Regeneron, published 2016)
Residue numbers refer to the chain shown, from its start.

B1: H2M3121N (antibody, V domains shown)
VH: EVQLVESGGDLVQPGGSLRLSCAASGVTFRTYEMNWVRQAPGKGLEWISHISSSGDIIYYTKSVKGRFTISRDNAKNSLFLQMTSLRAEDTAVYYCARERYSQYGYYYFGMDVWGQGTTVTVSS
VL: DIQMTQSPSTLSASIGDRVTITCRASQNTDKWMAWYQQKAGKAPKLLIYKASILESGVPSRFSGSGSGTEFTLTISSLQPDDFATYYCQEYNTYFRAFGQGTKVETR
notes: also called H2aM3121N; H1M3121N
B2: H2M3124N (antibody, V domains shown)
VH: EIQLIESGGDMVQPGGSLRLSCAASGISLNSYEMNWVRQTPGMGLEWISHISSSGTSIYYANSVKGRFTIFRDSAKNSLLLQMNSLRAEDTAIYYCARERYDHSGYYYLGMDVWGLGTTVTVSS
VL: DIQMTQSPSTLSASLGDRVTITCRASQNIDNWMAWYQQKVGKAPKLLIYRASTLETGVPSRFGGSGFGTEFTLTISSLQPGDFATYYCQEYNSYFRTFGQGTKVEIK
notes: also called H2aM3124N; H1M3124N
B3: H1H3325P (antibody, V domains shown)
VH: EVQLVESGGGLVQPGGSLRLSCAASGFTFNSFVMSWVRQAPGKGLEWVSAISGYGGSTYYADSMKGRFTVSRDNSKNTLYLQMNSLRAEDTAVYYCAKDHKDFYASGSYFNRDYYYGMDVWGQGTTVTVSS
VL: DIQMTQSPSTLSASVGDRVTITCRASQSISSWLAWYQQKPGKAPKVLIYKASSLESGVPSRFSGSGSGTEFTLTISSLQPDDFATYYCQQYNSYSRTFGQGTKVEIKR
B4: H1H3335P (antibody, V domains shown)
VH: EVQLVESGGGLVRPGGSLRLSCAASGFTFRIYAMSWVRQAPGKGLEWVSGISGSGDNTYYTDSVKGRFIISRDNSKSTLYLQMNSLRAEDTAVYYCARGWELLNYWGQGTLVTVSS
VL: DIQMTQSPSSLSAFVGDRVTITCRASQDISNHLAWFQQKPGKVPKSLIYAASSLQSGVPSKFSGSGSGTDFTLTISSLQPEDFATYYCQQYGLYPPTFGPGTKVDIKR
B5: H1H3337P (antibody, V domains shown)
VH: B4 VH with R13Q, R30S, D56G, N57R, T61A, I69T, S77N, A88V, Y105F
VL: B4 VL with F14S, D28G, H32N, V43A, Q55K, S76N, Q89H, G92N, L93S
B6: H1H3339P (antibody, V domains shown)
VH: B4 VH with R13Q, A24V, R30S, G50A, N57K, T61A, I69T, S77N, Y94F
VL: B4 VL with F14S, Q27L, H32F, K42T, V43A, A50S, Q55R, S56T, G92S, L93S
B7: H1H3343P (antibody, V domains shown)
VH: EVQLVESGGGLVQPGGSLRLSCVASGFNFRIYAMSWVRQAPGKGPEWVSGISGSGDNTYYAASVKGRFTVSRDNSKNTLYLQMTSLRAEDTAVFYCARGWELLNYWGQGTLVTVSS
VL: B4 VL with F14S, Q27L, S30G, H32F, K42T, V43A, A50S, S56T, G92N, L93S
B8: H1H3347P (antibody, V domains shown)
VH: EVQLVESGGGLVQPGGSLRLSCVASGFTFTSYAMSWVRQAPGRGLQWVSAIGGSGDSIYYADSVKGRFTISRDNSKNTLYLQMDSLRAEDTAVYYCARGWELLNYWGQGTLVTVSS
VL: B4 VL with F14S, S30G, H32F, V43A, Q55K, F62I, S76N, G92N, L93I
B9: H1H3344P (antibody, V domains shown)
VH: EVQLVESGGGLVQPGGSLRLSCAASGFTFKIYAMSWVRQGPGKGLEWVSAISGNGDKTYYTDSVQGRFTISRDNSKNTLFLQMNSLRAEDTAIYYCARGWELLNYWGQGTLVTVSS
VL: B4 VL with F14S, V15I, H32S, V43A, K61R, G92I, L93P, Y94F

molecular target: T1, Clostridium difficile toxin A, soluble full-length (TechLab) (Clostridium difficile, UniProt P16154 1-2710); assay: cell-based or functional assay

| Binder | IC50, Vero cell viability (neutralization), Trial 1, 32 pM Toxin A | IC50, Vero cell viability (neutralization), Trial 2, 32 pM Toxin A | IC50, Vero cell viability (neutralization), Trial 4, 32 pM Toxin A |
| --- | --- | --- | --- |
| B1 | 65 pM | 35 pM |  |
| B2 | 41 pM | 21 pM |  |
| B3 |  |  | 33 pM |

molecular target: T1, Clostridium difficile toxin A, soluble …; assay: SPR Biacore T200, 37C, mAb capture

| Binder | Kd | T½ | koff | kon |
| --- | --- | --- | --- | --- |
| B1 | 0.172 nM | 69 min | 0.000166 s⁻¹ | 969000 M⁻¹ s⁻¹ |
| B2 | 0.174 nM | 58 min | 0.000198 s⁻¹ | 1.14e+06 M⁻¹ s⁻¹ |

molecular target: T2, Clostridium difficile toxin B, soluble full-length (TechLab) (Clostridium difficile, UniProt P18177 2-2366); assay: SPR Biacore T200, 37C, mAb capture
T2 construct: also called tcdB

| Binder | Kd | T½ | koff | kon |
| --- | --- | --- | --- | --- |
| B1 | 1.24 nM | 2.53 h | 7.58e-05 s⁻¹ | 61100 M⁻¹ s⁻¹ |
| B2 | ≤ 0.00302 nM | 192 h | ≤ 1e-06 s⁻¹ | 331000 M⁻¹ s⁻¹ |

molecular target: T3, CBD-toxin A-Fc (Clostridium difficile, UniProt P16154 1848-2710); assay: SPR Biacore, mAb captured, 100 nM CBD-A-Fc flowed
T3 construct: also called CBD-A; C-term Toxin A

| Binder | binding (RU) |
| --- | --- |
| B1 | 0 RU |
| B4 | 13 RU |
| B5 | -17 RU |
| B6 | 19 RU |
| B7 | 11 RU |
| B8 | 42 RU |
| B9 | 5 RU |
| B2 | 0 RU |
| B3 | 17 RU |

molecular target: T4, CBD-toxin B-Fc (Clostridium difficile, UniProt P18177 1851-2366); assay: SPR Biacore, mAb capture and CBD-Fc capture formats
T4 construct: also called CBD-B; C-term Toxin B

| Binder | binding result |
| --- | --- |
| B1 | no binding |
| B8 | no binding |
| B2 | no binding |

molecular target: T3, CBD-toxin A-Fc; assay: as above

| Binder | binding result |
| --- | --- |
| B1 | no binding |
| B4 | no binding |
| B6 | no binding |
| B7 | no binding |
| B9 | no binding |
| B2 | no binding |
| B3 | no binding |

molecular target: T1, Clostridium difficile toxin A, soluble …; assay: SPR Biacore T200, 37C, mAb capture; remark: another data set of the same source

| Binder | Kd | T½ | koff | kon |
| --- | --- | --- | --- | --- |
| B3 | 0.105 nM | 209 min | 5.51e-05 s⁻¹ | 527000 M⁻¹ s⁻¹ |

molecular target: T2, Clostridium difficile toxin B, soluble …; assay: cell-based or functional assay

| Binder | IC50, Vero cell viability (neutralization), Trial 1, 0.1 pM Toxin B | IC50, Vero cell viability (neutralization), Trial 2, 0.1 pM Toxin B | IC50, Vero cell viability (neutralization), Trial 3, 0.03 pM Toxin B |
| --- | --- | --- | --- |
| B4 | 730 pM | 380 pM | 120 pM |
| B5 | 1730 pM | 980 pM | 320 pM |
| B6 | 480 pM | 270 pM | 90 pM |
| B7 | 280 pM | 200 pM | 50 pM |
| B8 | 130 pM | 90 pM | 25 pM |
| B9 | 580 pM | 400 pM | 40 pM |

molecular target: T4, CBD-toxin B-Fc; assay: SPR Biacore, CBD-B-Fc captured, 500 nM mAb flowed

| Binder | binding (RU) |
| --- | --- |
| B4 | -6 RU |
| B6 | -2 RU |
| B7 | -4 RU |
| B9 | -2 RU |
| B3 | -8 RU |

molecular target: T2, Clostridium difficile toxin B, soluble …; assay: SPR Biacore T200, 37C, mAb capture; remark: another data set of the same source

| Binder | Kd | T½ | koff | kon |
| --- | --- | --- | --- | --- |
| B4 | 2.34 nM | 28 min | 0.000414 s⁻¹ | 177000 M⁻¹ s⁻¹ |
| B5 | 3.93 nM | 12 min | 0.000945 s⁻¹ | 241000 M⁻¹ s⁻¹ |
| B6 | 1.95 nM | 22 min | 0.000537 s⁻¹ | 276000 M⁻¹ s⁻¹ |
| B7 | 1.58 nM | 26 min | 0.000448 s⁻¹ | 284000 M⁻¹ s⁻¹ |
| B8 | 2.4 nM | 14 min | 0.000813 s⁻¹ | 339000 M⁻¹ s⁻¹ |
| B9 | 4.24 nM | 13 min | 0.000865 s⁻¹ | 204000 M⁻¹ s⁻¹ |

molecular target: T5, C-term receptor Binding Domain (CBD) of toxin A (Clostridium difficile, UniProt P16154 1848-2710); assay: SEC (Superose 6) of CBD and mAb mixture
T5 construct: also called CBD-A; recombinant CBD of toxin A

| Binder | binding result |
| --- | --- |
| B1 | no binding (tested: CBD at ~500 nM, CBD:Mab 1:5 and 1:20) |
| B2 | no binding (tested: CBD at ~500 nM, CBD:Mab 1:5 and 1:20) |
| B3 | no binding (tested: CBD at ~500 nM, CBD:Mab 1:5 and 1:20) |

molecular target: T6, C-term receptor Binding Domain (CBD) of toxin B (Clostridium difficile, UniProt P18177 1851-2366); assay: SEC (Superose 6) of CBD and mAb mixture
T6 construct: also called CBD-B

| Binder | binding result |
| --- | --- |
| B4 | no binding (tested: CBD at ~500 nM, CBD:Mab 1:5 and 1:20) |
| B5 | no binding (tested: CBD at ~500 nM, CBD:Mab 1:5 and 1:20) |
| B6 | no binding (tested: CBD at ~500 nM, CBD:Mab 1:5 and 1:20) |
| B7 | no binding (tested: CBD at ~500 nM, CBD:Mab 1:5 and 1:20) |
| B8 | no binding (tested: CBD at ~500 nM, CBD:Mab 1:5 and 1:20) |
| B9 | no binding (tested: CBD at ~500 nM, CBD:Mab 1:5 and 1:20) |

molecular target: T3, CBD-toxin A-Fc; assay: SPR Biacore, CBD-A-Fc captured, 500 nM mAb flowed

| Binder | binding (RU) |
| --- | --- |
| B1 | 23 RU |
| B4 | 5 RU |
| B5 | 8 RU |
| B6 | 2 RU |
| B7 | 3 RU |
| B8 | -13 RU |
| B9 | 5 RU |
| B2 | 29 RU |
| B3 | 3 RU |
